Assay [1] deals with SNUPN (Homo sapiens) (UniProt O95149). The note with it: cited from earlier work.
In assay [2] the target is GFP-CPSF6. In words: bead halo assay.
Assay [3] has as its target GFP-RPS6KA3. Nature of the assay: bead halo assay.
Assay [4] addresses GFP-TRAP1. Nature of the assay: bead halo assay.
Assay [5] has as its target GFP-NELF. Nature of the assay: bead halo assay.
The target in assay [6] is GFP-SRSF7. In words: bead halo assay.
For assay [7], the target named is EIF5A (Homo sapiens) (UniProt P63241). The note with it: cited from earlier work.
Sequence of EIF5A (Homo sapiens) (P63241 2-154): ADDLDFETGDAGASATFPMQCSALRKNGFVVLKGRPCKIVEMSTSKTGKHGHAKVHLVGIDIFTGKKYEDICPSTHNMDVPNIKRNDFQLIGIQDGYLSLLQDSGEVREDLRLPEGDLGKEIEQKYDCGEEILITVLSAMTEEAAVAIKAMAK

Sequence of CRM1 (O14980 whole entry): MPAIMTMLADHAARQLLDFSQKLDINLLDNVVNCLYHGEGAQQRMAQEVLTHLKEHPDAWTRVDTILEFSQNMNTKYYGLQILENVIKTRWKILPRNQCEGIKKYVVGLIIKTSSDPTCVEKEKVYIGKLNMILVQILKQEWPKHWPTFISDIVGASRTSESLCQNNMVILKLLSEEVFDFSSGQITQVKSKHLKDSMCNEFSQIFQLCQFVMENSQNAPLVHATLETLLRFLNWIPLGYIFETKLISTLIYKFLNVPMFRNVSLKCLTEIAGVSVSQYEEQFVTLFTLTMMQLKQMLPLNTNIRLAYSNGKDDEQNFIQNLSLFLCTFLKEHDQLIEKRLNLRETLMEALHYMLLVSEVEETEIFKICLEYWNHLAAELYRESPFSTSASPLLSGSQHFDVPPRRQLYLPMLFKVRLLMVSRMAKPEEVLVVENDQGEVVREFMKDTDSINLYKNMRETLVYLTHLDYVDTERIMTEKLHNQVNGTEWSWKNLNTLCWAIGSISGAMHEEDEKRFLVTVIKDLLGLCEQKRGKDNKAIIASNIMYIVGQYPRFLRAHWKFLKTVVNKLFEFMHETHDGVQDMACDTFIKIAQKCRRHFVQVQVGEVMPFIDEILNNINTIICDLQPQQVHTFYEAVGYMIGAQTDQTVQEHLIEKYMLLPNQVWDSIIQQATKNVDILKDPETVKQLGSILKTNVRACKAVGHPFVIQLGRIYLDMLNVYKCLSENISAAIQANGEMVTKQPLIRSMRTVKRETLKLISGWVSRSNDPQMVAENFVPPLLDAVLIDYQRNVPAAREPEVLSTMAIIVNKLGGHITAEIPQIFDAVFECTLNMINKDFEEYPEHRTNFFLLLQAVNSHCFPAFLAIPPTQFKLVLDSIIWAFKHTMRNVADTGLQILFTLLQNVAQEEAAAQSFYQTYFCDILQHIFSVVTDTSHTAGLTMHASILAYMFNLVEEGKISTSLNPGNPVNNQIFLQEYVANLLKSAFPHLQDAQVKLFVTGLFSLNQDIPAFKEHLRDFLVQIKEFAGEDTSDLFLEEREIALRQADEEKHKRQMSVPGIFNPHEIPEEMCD
Sequence of SNUPN (Homo sapiens) (O95149 whole entry): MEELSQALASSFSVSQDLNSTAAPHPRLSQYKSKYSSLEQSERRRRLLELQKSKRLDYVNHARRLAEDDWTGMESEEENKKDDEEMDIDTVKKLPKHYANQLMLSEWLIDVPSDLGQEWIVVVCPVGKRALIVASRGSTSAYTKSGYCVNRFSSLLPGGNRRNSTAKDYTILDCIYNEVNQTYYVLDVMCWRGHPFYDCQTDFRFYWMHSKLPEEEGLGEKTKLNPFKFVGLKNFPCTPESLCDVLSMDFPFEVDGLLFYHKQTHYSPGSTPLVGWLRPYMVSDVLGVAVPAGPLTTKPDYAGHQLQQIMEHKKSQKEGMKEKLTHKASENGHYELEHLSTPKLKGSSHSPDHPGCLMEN
Sequence of Xpo4 (Q9C0E2 whole entry): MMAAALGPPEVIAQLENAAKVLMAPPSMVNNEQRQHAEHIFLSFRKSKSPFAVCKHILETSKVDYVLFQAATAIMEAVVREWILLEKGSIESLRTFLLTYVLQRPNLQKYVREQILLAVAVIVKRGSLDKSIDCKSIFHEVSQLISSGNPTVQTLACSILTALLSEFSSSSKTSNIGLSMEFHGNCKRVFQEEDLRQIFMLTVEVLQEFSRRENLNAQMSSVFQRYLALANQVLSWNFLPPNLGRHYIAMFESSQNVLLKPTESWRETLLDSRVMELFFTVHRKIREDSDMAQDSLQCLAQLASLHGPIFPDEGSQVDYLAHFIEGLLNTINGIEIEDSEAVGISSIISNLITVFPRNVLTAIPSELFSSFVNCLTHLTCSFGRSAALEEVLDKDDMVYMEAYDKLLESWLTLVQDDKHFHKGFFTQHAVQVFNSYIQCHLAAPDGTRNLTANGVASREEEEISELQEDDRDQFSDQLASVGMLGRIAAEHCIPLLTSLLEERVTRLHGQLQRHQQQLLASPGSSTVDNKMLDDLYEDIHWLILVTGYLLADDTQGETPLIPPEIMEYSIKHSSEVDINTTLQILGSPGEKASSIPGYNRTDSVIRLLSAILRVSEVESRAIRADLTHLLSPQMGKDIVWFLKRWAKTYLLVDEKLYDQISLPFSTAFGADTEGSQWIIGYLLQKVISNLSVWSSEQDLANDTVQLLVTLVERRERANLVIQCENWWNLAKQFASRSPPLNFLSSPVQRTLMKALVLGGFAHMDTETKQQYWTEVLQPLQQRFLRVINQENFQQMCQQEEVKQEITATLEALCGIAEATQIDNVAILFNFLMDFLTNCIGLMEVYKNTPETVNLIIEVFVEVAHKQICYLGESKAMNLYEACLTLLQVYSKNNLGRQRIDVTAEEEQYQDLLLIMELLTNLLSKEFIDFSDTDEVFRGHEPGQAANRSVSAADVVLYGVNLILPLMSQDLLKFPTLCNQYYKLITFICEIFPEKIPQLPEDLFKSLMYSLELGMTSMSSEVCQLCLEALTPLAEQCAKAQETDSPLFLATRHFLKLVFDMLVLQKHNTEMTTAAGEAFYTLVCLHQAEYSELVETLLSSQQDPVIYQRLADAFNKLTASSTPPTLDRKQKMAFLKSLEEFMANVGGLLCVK

As a reminder, the Kd is the equilibrium constant for the complex coming apart. For the substance CRM1 (from UniProt O14980), the Kd in assay [1] was 10 nM.

“GST-mCherry-TrnSR (WT) (from UniProt Q9Y5L0) D409R”: the response is 0.46 GFP/mCherry in assay [2]; 0.13 GFP/mCherry in assay [3]; 1.35 GFP/mCherry in assay [4]; 2.89 GFP/mCherry in assay [5]; 0.67 GFP/mCherry in assay [6].

“GST-mCherry-TrnSR (WT) (from UniProt Q9Y5L0) E398R”: the response in assay [2] turned out to be 0.15 GFP/mCherry; in assay [3], 0.09 GFP/mCherry; in assay [4], 1.11 GFP/mCherry; in assay [5], 1.14 GFP/mCherry; in assay [6], 0.94 GFP/mCherry.

As to “GST-mCherry-TrnSR (WT) (from UniProt Q9Y5L0) R671E”, the response was found to be 0.15 GFP/mCherry in assay [2]; 0.37 GFP/mCherry in assay [3]; 1.16 GFP/mCherry in assay [4]; 0.5 GFP/mCherry in assay [5]; 0.26 GFP/mCherry in assay [6].

Consider Xpo4 (from UniProt Q9C0E2), for which, in assay [7], the Kd was 2 nM.

(Values after article PMC8329185.)
